Laboratory results from the supplement of paper PMC10724198.
± gives the standard deviation of the averaged measurements.

Tested on: Saccharomyces cerevisiae
Assay: protein stability index of tFT-peptide fusion (C-terminal peptide) (PSI (0-1 scale)); higher = more stable (slower turnover)
Conditions: temperature: 30 C
Protocol: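 MPS profiling in S. cerevisiae of the yeast C-terminome library: the last 12 aa of each annotated ORF are fused to the C-terminus of a sfGFP-mCherry timer, after a GGGS linker. Cells are FACS-sorted into 8 mCherry/sfGFP bins and deep-sequenced. PSI runs from 0 (unstable) to 1 (stable); wild type and das1Δ backgrounds, two technical replicates each.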

[1] = genetic background: das1 deletion

Sequence	protein stability index [1]	protein stability index (genetic background: wild type)
HGGNVSSSTYQA [GND1 C-terminal 12 aa]	0.685 ± 0.013	0.696 ± 0.029
KVSPAAAAKKAL [RPS26B C-terminal 12 aa]	0.684 ± 0.0089	0.6696 ± 0.00082
TDFENPNFRYTL [DAL5 C-terminal 12 aa]	0.756 ± 0.039	0.794 ± 0.12
AKVYFLGRDSSI [NDE1 C-terminal 12 aa]	0.708 ± 0.016	0.741 ± 0.076
FTNQKLAKLEVR [YMR141C C-terminal 12 aa]	0.57877 ± 0.00025	0.591 ± 0.0041
WDFKKQGFASRD [PDA1 C-terminal 12 aa]	0.696 ± 0.01	0.6926 ± 0.003
WAVICFCSGIHK [YMR027W C-terminal 12 aa]	0.5858 ± 0.0021	0.546 ± 0.013
LFMNAVIKTFKK [DGK1 C-terminal 12 aa]	0.7 ± 0.0083	0.6997 ± 0.0014
VPSLLILSVFFS [YPS3 C-terminal 12 aa]	0.27 ± 0.03	0.273 ± 0.012
LETAFEEWDYYE [MRX6 C-terminal 12 aa]	0.731 ± 0.016	0.787 ± 0.064
EMTHSLFKKYGI [CRC1 C-terminal 12 aa]	0.705 ± 0.017	0.722 ± 0.047
SKKSKKSKKSEE [MRH1 C-terminal 12 aa]	0.719 ± 0.0089	0.695 ± 0.053
LLASCIETTRNK [LOT6 C-terminal 12 aa]	0.691 ± 0.008	0.667 ± 0.027
FFSKKRPNIDSK [YOL037C C-terminal 12 aa]	0.696 ± 0.011	0.684 ± 0.058
KTFINNVINVYH [FRM2 C-terminal 12 aa]	0.6589 ± 0.006	0.674 ± 0.018
RKFFKRMTNFWC [TAT1 C-terminal 12 aa]	0.7409 ± 0.0066	0.436 ± 0.025
KLTIRIKQKTHL [YOR316C-A C-terminal 12 aa]	0.702 ± 0.012	0.6824 ± 0.0065
SFVTKKKAACYR [YIL025C C-terminal 12 aa]	0.717 ± 0.011	0.706 ± 0.0072
YVVTSDEHPKTL [SIR2 C-terminal 12 aa]	0.724 ± 0.0073	0.6955 ± 0.0043
RRFDVYSDVNAH [NIT3 C-terminal 12 aa]	0.71 ± 0.0033	0.677 ± 0.044
GSAAVAGALLLL [YNL190W C-terminal 12 aa]	0.689 ± 0.02	0.664 ± 0.023

Sequence	protein stability index [1]	protein stability index (genetic background: wild type)
QTLDSEYNTILQ [GAT2 C-terminal 12 aa]	0.704 ± 0.024	0.742 ± 0.073
LSQWVSQMPFPM [LRO1 C-terminal 12 aa]	0.79828 ± 0.00044	0.8015 ± 0.0025
PQRTKIQAFNTL [MRP1 C-terminal 12 aa]	0.70194 ± 0.0001	0.675 ± 0.029
SLKDLIMQVTKM [CTO1 C-terminal 12 aa]	0.753 ± 0.046	0.654 ± 0.069
KTSLKITHRRVI [YGL117W C-terminal 12 aa]	0.7424 ± 0.0067	0.658 ± 0.0094
GSSLITEGVYVI [NSE1 C-terminal 12 aa]	0.686 ± 0.021	0.683 ± 0.028
VAKKRLSSRSKP [YNL162W-A C-terminal 12 aa]	0.715 ± 0.05	0.658 ± 0.02
AADPLSNDALFK [BRX1 C-terminal 12 aa]	0.733 ± 0.063	0.737 ± 0.12
SGIVENDFENRS [YOR1 C-terminal 12 aa]	0.707 ± 0.013	0.705 ± 0.084
VARYKMVSKRIW [EMP65 C-terminal 12 aa]	0.717 ± 0.011	0.654 ± 0.018
EKLAALVENAEV [PUF3 C-terminal 12 aa]	0.68 ± 0.0089	0.679 ± 0.04
SMKPFKRRKPFF [PRP16 C-terminal 12 aa]	0.69 ± 0.0092	0.72 ± 0.0089
SFRSSHFYSLIA [YLR217W C-terminal 12 aa]	0.691 ± 0.012	0.331 ± 0.016
CSTRRSYLRYKK [YBR285W C-terminal 12 aa]	0.705 ± 0.0047	0.6634 ± 0.0014
VNELVELMTQSA [SEC18 C-terminal 12 aa]	0.675 ± 0.015	0.695 ± 0.014
SWISNNTNVPKK [ARF3 C-terminal 12 aa]	0.6958 ± 0.0013	0.678 ± 0.011
NHPSNDSGNEKN [HCM1 C-terminal 12 aa]	0.667 ± 0.025	0.656 ± 0.029
ALQKQIKNALPC [PTP2 C-terminal 12 aa]	0.694 ± 0.024	0.69 ± 0.029
LGDIYTLTNNEL [PHO13 C-terminal 12 aa]	0.701 ± 0.01	0.6802 ± 0.00082
DRKQSQATNATN [ARP7 C-terminal 12 aa]	0.687 ± 0.016	0.671 ± 0.0046
KDKKDKKKKHRD [RPA34 C-terminal 12 aa]	0.704 ± 0.013	0.664 ± 0.035

Sequence	protein stability index [1]	protein stability index (genetic background: wild type)
SPYLKHLDSRKQ [CTS2 C-terminal 12 aa]	0.722 ± 0.019	0.7 ± 0.045
CPPTIEIGGGGH [MIR1 C-terminal 12 aa]	0.712 ± 0.0075	0.706 ± 0.0053
LEHMLEGKEQDE [PRM5 C-terminal 12 aa]	0.707 ± 0.025	0.751 ± 0.036
TNTVPATSASSK [RGC1 C-terminal 12 aa]	0.68862 ± 0.00043	0.701 ± 0.04
DYKLRELIYDTI [AIP5 C-terminal 12 aa]	0.7014 ± 0.0011	0.661 ± 0.018
VKFGLQMAYLQS [YMR007W C-terminal 12 aa]	0.7023 ± 0.005	0.6586 ± 0.0059
LQNNDVTIGFAK [MUD1 C-terminal 12 aa]	0.715 ± 0.0077	0.655 ± 0.02
FPLLMSEIEDFR [YNL067W-A C-terminal 12 aa]	0.718 ± 0.019	0.695 ± 0.033
NASEIYVKRKTG [DDL1 C-terminal 12 aa]	0.708 ± 0.041	0.204 ± 0.03
ALENENKRKAKL [CAT2 C-terminal 12 aa]	0.79 ± 0.015	0.798 ± 0.11
AKELISAIFFGE [TAF6 C-terminal 12 aa]	0.698 ± 0.057	0.6614 ± 0.0044
NTESSDKGAKIQ [SIN3 C-terminal 12 aa]	0.701 ± 0.035	0.664 ± 0.012
KSDLISNIRQKI [RBH1 C-terminal 12 aa]	0.716 ± 0.035	0.638 ± 0.037
FILKAKLEWIKW [YOL075C C-terminal 12 aa]	0.515 ± 0.018	0.578 ± 0.11
YLKEYEFSQKDF [PFS1 C-terminal 12 aa]	0.725 ± 0.01	0.734 ± 0.025
FKQSEITLYRTR [PEP8 C-terminal 12 aa]	0.693 ± 0.032	0.722 ± 0.11
SLYMNISYILLF [YGR073C C-terminal 12 aa]	0.44985 ± 0.00042	0.2066 ± 0.0013
GALLAGAAALLL [CCW12 C-terminal 12 aa]	0.7007 ± 0.0036	0.698 ± 0.019
GIVRHLIDSVKL [ACS1 C-terminal 12 aa]	0.695 ± 0.012	0.6884 ± 0.0041
KKNKSAIDGIFG [RMP1 C-terminal 12 aa]	0.7173 ± 0.0015	0.694 ± 0.014
DALYRIIYGNIL [TIP20 C-terminal 12 aa]	0.711 ± 0.02	0.743 ± 0.037

Sequence	protein stability index [1]	protein stability index (genetic background: wild type)
ILSLYFISDRTG [YBR200W-A C-terminal 12 aa]	0.7249 ± 0.0034	0.753 ± 0.053
DLEFEEQREPKL [NVJ2 C-terminal 12 aa]	0.719 ± 0.006	0.668 ± 0.011
WFSCSLIFRNSW [YJR140W-A C-terminal 12 aa]	0.6314 ± 0.0035	0.618 ± 0.053
DEWLNLHINIVE [SHU2 C-terminal 12 aa]	0.741 ± 0.0062	0.717 ± 0.014
IDEIYEDKWLKI [PSK2 C-terminal 12 aa]	0.727 ± 0.027	0.74 ± 0.047
RSFVTRFLHFWC [HIP1 C-terminal 12 aa]	0.777 ± 0.024	0.716 ± 0.046
QGRQGFNGGSRW [YNL208W C-terminal 12 aa]	0.706 ± 0.025	0.681 ± 0.028
KDLFASIGKKKL [FYV8 C-terminal 12 aa]	0.714 ± 0.011	0.682 ± 0.026
EETLEFDPTLLV [YBL062W C-terminal 12 aa]	0.707 ± 0.0077	0.692 ± 0.023
PSENFATKAKLP [YDR187C C-terminal 12 aa]	0.7507 ± 0.0029	0.71 ± 0.025
GVITPVYFPLRW [YDR215C C-terminal 12 aa]	0.725 ± 0.008	0.715 ± 0.017
ERTSLLSGETQT [YPQ2 C-terminal 12 aa]	0.67739 ± 0.00033	0.684 ± 0.014
MKEKLKHSRKYM [SHY1 C-terminal 12 aa]	0.7121 ± 0.0039	0.6685 ± 0.0027
KQREKYAAVASK [SOP4 C-terminal 12 aa]	0.692 ± 0.022	0.698 ± 0.043
QDEDEDEDIEMQ [RAD3 C-terminal 12 aa]	0.6935 ± 0.0052	0.705 ± 0.057
YKDVQDAIRDSL [URA6 C-terminal 12 aa]	0.708 ± 0.012	0.6855 ± 0.0037
YKKAATLISNIL [DNM1 C-terminal 12 aa]	0.71 ± 0.017	0.72 ± 0.074
KGRYVNSSKRRS [NOB1 C-terminal 12 aa]	0.6955 ± 0.00021	0.6781 ± 0.004
KGNLPGVKKGIW [MRP2 C-terminal 12 aa]	0.687 ± 0.012	0.668 ± 0.011
